Experimental data taken from patent US20240117038A1 (Ablynx, published 2024).
Positions count from the first letter of the chain named. Names may count otherwise.

B1: A041600035 (VHH)
chain: DVQLVESGGGSVQPGGSLRLSCAASGSIFSSTAMAWYRQAPGKQRDLVAVISTVGITKYADSVKGRFTISRDNAKNTVYLQMNSLRPEDTALYYCTSDARRGWDTRYWGQGTLVTVSSGGGGSGGGSEVQLVESGGGSVQPGGSLRLSCAASGSIFSSTAMAWYRQAPGKQRDLVAVISTVGITKYADSVKGRFTISRDNAKNTVYLQMNSLRPEDTALYYCTSDARRGWDTRYWGQGTLVTVSSGGGGSGGGSEVQLVESGGGVVQPGGSLRLSCAASGFTFRSFGMSWVRQAPGKGPEWVSSISGSGSDTLYADSVKGRFTISRDNSKNTLYLQMNSLRPEDTALYYCTIGGSLSRSSQGTLVTVSSA
notes: Trivalent ISVD construct (two anti-CX3CR1 ISVDs, one anti-albumin ISVD), C-terminal alanine included in the entry; also called 54A12_SO (E1D)-9GS-54A12_SO-9GS-ALB23002-A
B2: A041600041 (VHH)
chain: B1 chain with Q171R, V177A, S179N, I183V, A226P
notes: Trivalent ISVD construct (two anti-CX3CR1 ISVDs, one anti-albumin ISVD), C-terminal alanine included in the entry; also called 54A12_SO (E1D)-9GS-66B02_SO-9GS-ALB23002-A
B3: A041600025 (VHH)
chain: DVQLVESGGGSVQPGGSLRLSCAASGSIFSSTAMAWYRQAPGKQRDLVAVISTVGITKYADSVKGRFTISRDNAKNTVYLQMNSLRPEDTALYYCTSDARRGWDTRYWGQGTLVTVSSGGGGSGGGSEVQLVESGGGVVQPGGSLRLSCAASGFTFRSFGMSWVRQAPGKGPEWVSSISGSGSDTLYADSVKGRFTISRDNSKNTLYLQMNSLRPEDTALYYCTIGGSLSRSSQGTLVTVSSGGGGSGGGSEVQLVESGGGSVQPGGSLRLSCAASGSIFSSTAMAWYRQAPGKQRDLVAVISTVGITKYADSVKGRFTISRDNAKNTVYLQMNSLRPEDTALYYCTSDARRGWDTRYWGQGTLVTVSSA
notes: Trivalent ISVD construct (two anti-CX3CR1 ISVDs, one anti-albumin ISVD), C-terminal alanine included in the entry; also called 54A12_SO (E1D)-9GS-ALB23002-9GS-54A12_SO-A
B4: A041600085 (VHH)
chain: DVQLVESGGGLVQPGGSLRLSCAASGSIFSSTAMAWYRQAPGKRRDLVAAISTVGVTKYADSVKGRFTISRDNSKNTVYLQMNSLRPEDTAVYYCTSDPRRGWDTRYWGQGTLVTVSSGGGGSGGGSEVQLVESGGGVVQPGGSLRLSCAASGFTFRSFGMSWVRQAPGKGPEWVSSISGSGSDTLYADSVKGRFTISRDNSKNTLYLQMNSLRPEDTALYYCTIGGSLSRSSQGTLVTVSSGGGGSGGGSEVQLVESGGGLVQPGGSLRLSCAASGSIFSSTAMAWYRQAPGKRRDLVAAISTVGVTKYADSVKGRFTISRDNSKNTVYLQMNSLRPEDTAVYYCTSDPRRGWDTRYWGQGTLVTVSSA
notes: also called 307-9GS-ALB23002-9GS-307 (D1E)-A
B5: A041600034 (VHH)
chain: B3 chain with Q295R, V301A, S303N, I307V, A350P
notes: Trivalent ISVD construct; also called 54A12_SO (E1D)-9GS-ALB23002-9GS-66B02_SO-A

Legend:
human CX3CR1 [1] = molecular target: T1, human CX3CR1 (human, UniProt P49238 1-355); assay: flow cytometry on CHO K1 huCX3CR1 cells, 30 uM HSA
T1 construct: Overexpressed on CHO K1, Ba/F3 or HEK293T cells; also called huCX3CR1; hCX3CR1
T1 sequence: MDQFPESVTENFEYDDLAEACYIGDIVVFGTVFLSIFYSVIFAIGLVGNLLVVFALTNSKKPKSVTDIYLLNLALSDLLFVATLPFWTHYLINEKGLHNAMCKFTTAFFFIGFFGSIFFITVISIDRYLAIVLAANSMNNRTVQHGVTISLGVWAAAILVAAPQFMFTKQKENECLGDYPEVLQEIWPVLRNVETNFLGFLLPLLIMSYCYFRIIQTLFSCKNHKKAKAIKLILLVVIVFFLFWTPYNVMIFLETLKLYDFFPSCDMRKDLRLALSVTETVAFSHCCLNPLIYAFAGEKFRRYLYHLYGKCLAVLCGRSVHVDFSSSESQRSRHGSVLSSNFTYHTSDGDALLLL
Description: (§1) CHO cells overexpressing human or cynomolgus CX3CR1 were generated using techniques known in the art. Cells were harvested and resuspended in assay buffer (PBS, 2% FBS, 0.05% NaN3) and seeded separately in 384-well Bio-One V-bottom plates (Greiner, Cat. No. 781280), with a total of 2E04 cells seeded per well. After washing, serial dilutions of multivalent ISVD construct (starting from 250 nM, 3-fold dilution, 11 points, diluted in assay buffer), were added and incubated for 4 hours at 4° C. Binding was performed in the presence of 30 uM HSA (Sigma-Aldrich, Cat. No. A8763). Plates were then washed 3 times and cells were incubated with an anti-VHH mouse antibody (3300-fold diluted in assay buffer) for 30 minutes at 4′° C. […] Plates were finally washed 3 times and cells were resuspended in PI (Miltenyi Biotec, Cat. No. 130-093-233, 1000-fold diluted in assay buffer). Cell suspensions were analyzed with iQue Screener PLUS (Intellicyt). EC50s were estimated by dose response modelling. Curves were fit using 4 parameter logistic regression in GraphPad (GraphPad Software Inc.). A purified anti-human CX3CR1 antibody [K0124E1] (BioLegend, Cat. No. 355701/355702) was used as positive control to detect CX3CR1 expression on the cell surface.

human CX3CR1 V249I = molecular target: T2, human CX3CR1 V249I (human, UniProt P49238 1-355); assay: flow cytometry on transiently transfected HEK293T cells, human CX3CR1 V249I
T2 construct: Transiently transfected in HEK293T cells (pcDNA3.1); also called huCX3CR1 variant V249I (Rs3732379); printed V2491 in the text
T2 sequence: T1 sequence with V249I
Description: as §1, with “After” for “CHO cells overexpressing human or cynomolgus CX3CR1 were generated using techniques known in the art. Cells were harvested and resuspended in assay buffer (PBS, 2% FBS, 0.05% NaN3) and seeded separately in 384-well Bio-One V-bottom plates (Greiner, Cat. No. 781280), with a total of 2E04 cells seeded per well. After”
(§2) Two important SNPs are described in huCX3CR1, i.e. V2491 (Rs3732379) and T280M (Rs3732378), which might influence receptor activity and binding by the ISVD. […] Different combinations of these SNPs were introduced in human CX3CR1, and binding by 5 selected multivalent ISVD constructs was assessed with flow cytometry after transient transfection of the huCX3CR1 variants in HEK293T cells.
(§3) In short, the CX3CR1 constructs were cloned into pcDNA3.1 (ThermoFisher Scientific, Cat. No. V79020) and plasmid DNA was prepared from Escherichia coli TOP10 cells. HEK293T cells were seeded at a concentration of 1.5E06 cells per T75 flask and incubated overnight at 37° C. in DMEM medium (Gibco, Cat. No. 31966) supplemented with 10% FBS (Sigma. Cat. No. F7524). The medium was then replaced by Opti-MEM medium (Gibco, Cat. No. 31985). A mixture of 9 μg plasmid DNA, 27 μL Fugene 6 (Promega, Cat. No. E2691) in a final volume of 1 mL Opti-MEM was incubated for 15 minutes at room temperature and then added to the cells. After 3 hours incubation at 37° C., 10 mL of DMEM supplemented with 20% FBS was added, and incubation continued.

human CX3CR1 [2] = molecular target: T1, human CX3CR1; assay: flow cytometry on transiently transfected HEK293T cells, human CX3CR1 WT
Description: as §1, with “After” for “CHO cells overexpressing human or cynomolgus CX3CR1 were generated using techniques known in the art. Cells were harvested and resuspended in assay buffer (PBS, 2% FBS, 0.05% NaN3) and seeded separately in 384-well Bio-One V-bottom plates (Greiner, Cat. No. 781280), with a total of 2E04 cells seeded per well. After”
as §2, §3

cynomolgus CX3CR1 = molecular target: T3, cynomolgus CX3CR1 (cynomolgus monkey (Macaca fascicularis), UniProt P49238 1-355 (human entry)); assay: competition flow cytometry vs soluble huCX3CL1-AF647 on CHO K1 cyCX3CR1 cells, 30 uM HSA
T3 construct: Overexpressed on CHO K1 cells; also called cyno CX3CR1; cyCX3CR1
T3 chain: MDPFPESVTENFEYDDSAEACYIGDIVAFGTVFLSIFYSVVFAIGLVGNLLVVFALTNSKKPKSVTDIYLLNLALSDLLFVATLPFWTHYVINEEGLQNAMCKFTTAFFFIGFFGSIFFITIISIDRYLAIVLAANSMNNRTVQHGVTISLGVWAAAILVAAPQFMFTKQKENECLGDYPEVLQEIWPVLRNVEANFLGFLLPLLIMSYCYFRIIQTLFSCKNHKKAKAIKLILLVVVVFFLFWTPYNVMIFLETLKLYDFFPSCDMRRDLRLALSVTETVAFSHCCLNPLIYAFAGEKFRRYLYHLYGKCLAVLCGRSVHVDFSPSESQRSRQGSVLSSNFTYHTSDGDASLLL

Row | Binder | EC50 (human CX3CR1 [1]) [nM] | top (human CX3CR1 [1]) | EC50 (human CX3CR1 V249I) [nM] | EC50 (human CX3CR1 [2]) [nM] | % inhibition (cynomolgus CX3CR1) [%] | IC50 (cynomolgus CX3CR1) [nM]
1 | B1 | 0.36 | 50900 | 0.25 | 0.13 | 105 | 1.1
2 | B2 | 0.22 | 41800 | 0.089 | 0.16 | 107 | 1.8
3 | B3 | 0.46 | 28700 | – | 0.065 | 104 | 1.7
4 | B4 | 0.17 | 14600 | 0.057 | 0.12 | 102 | 1.1
5 | B5 | 0.63 | 28200 | 0.045 | 0.1 | 104 | 1.8
